The source of these data is US20200239579A1 (Genmab, published 2020).

Broadly, the EC50 (read off the curve) is the concentration needed to bring the measured effect to its halfway point. Usually Kd stands for the equilibrium constant for the complex coming apart. In general, koff refers to a measure of how fast the partners let go of each other. Usually kon stands for the rate constant with which the complex forms.

The target in assay [1] is T1, human PD-L1 (full length, on cells) (human, UniProt Q9NZQ7 19-290).
T1 construct: The entry holds the signal peptide; also called CD274; B7H1
T1 sequence (Q9NZQ7 19-290 limits assumed): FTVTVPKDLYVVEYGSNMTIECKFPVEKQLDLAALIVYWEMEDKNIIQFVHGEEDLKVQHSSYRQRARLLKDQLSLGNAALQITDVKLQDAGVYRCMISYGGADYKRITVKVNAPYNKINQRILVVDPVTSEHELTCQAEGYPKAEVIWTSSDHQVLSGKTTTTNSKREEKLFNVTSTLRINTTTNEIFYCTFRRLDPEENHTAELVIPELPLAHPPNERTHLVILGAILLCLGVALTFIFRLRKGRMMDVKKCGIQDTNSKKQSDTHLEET
Kind of assay: flow cytometry on SK-MES-1 cells, PE anti-human IgG secondary, MFI (PE). On the procedure:
(§1) Cells (3-5×10⁴ cells/well) were incubated in polystyrene 96-well round-bottom plates (Greiner bio-one, cat. no. 650101) with serial dilutions of antibodies (range 0.0001 to 10 μg/mL in 5-fold dilution steps) in 50 μL PBS/0.1% BSA/0.02% azide (staining buffer) at 4° C. for 30 min.
(§2) After washing twice in staining buffer, cells were incubated in 50 μL secondary antibody at 4° C. for 30 min. As a secondary antibody, R-Phycoerythrin (PE)-conjugated goat-anti-human IgG F(ab′)₂ (Cat. no. 109-116-098, Jackson ImmunoResearch Laboratories, Inc., West Grove, Pa.) diluted 1:500 in staining buffer, was used for all experiments. Next, cells were washed twice in staining buffer, re-suspended in 20 μL staining buffer and analyzed on an iQue screener (Intellicyt Corporation, USA). Binding curves were analyzed using non-linear regression (sigmoidal dose-response with variable slope) using GraphPad Prism V75.04 software (GraphPad Software, San Diego, Calif., USA).

Assay [2] deals with T2, cynomolgus monkey PD-L1 (full length, on CHO cells) (cynomolgus monkey (Macaca fascicularis), UniProt G7PSE7 19-290).
T2 construct: whole, on cells; also called PDL1 Mf; cynomolgus PD-L1
T2 sequence (G7PSE7 entry or part of it): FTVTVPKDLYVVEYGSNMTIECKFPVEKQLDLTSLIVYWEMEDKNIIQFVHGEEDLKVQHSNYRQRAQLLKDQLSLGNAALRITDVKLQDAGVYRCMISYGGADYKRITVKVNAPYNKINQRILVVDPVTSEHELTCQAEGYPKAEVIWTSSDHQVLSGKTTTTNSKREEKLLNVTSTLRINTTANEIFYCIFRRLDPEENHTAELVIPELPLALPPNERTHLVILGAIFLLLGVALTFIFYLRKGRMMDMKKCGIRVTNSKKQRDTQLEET
Kind of assay: flow cytometry on CHO cells transfected with cynomolgus PD-L1, PE anti-human IgG secondary, MFI (PE). On the procedure: as §1, §2
Binding to CHO cells expressing cynomolgus PD-L1 was determined by flow cytometry using a method as described above.
A general note: In flow cytometry, cells or beads pass a laser one at a time.

Assay [3] deals with T3, cynomolgus PD-L1/137-H1 protein (Acro Biosystems, cat. No. PD1-052H4-100) (cynomolgus, UniProt G7PSE7 19-239).
T3 construct: also called cynomolgus PD-L1 (BLI)
T3 sequence (G7PSE7 entry or part of it): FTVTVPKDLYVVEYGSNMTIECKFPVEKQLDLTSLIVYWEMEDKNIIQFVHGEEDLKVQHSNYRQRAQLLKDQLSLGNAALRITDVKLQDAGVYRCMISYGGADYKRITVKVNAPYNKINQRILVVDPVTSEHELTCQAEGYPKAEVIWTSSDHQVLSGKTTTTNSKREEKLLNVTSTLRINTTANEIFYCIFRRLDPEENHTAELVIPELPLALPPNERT
Briefly: BLI (Octet HTX), average of 3 experiments; antibody on AHC sensor, cynomolgus PD-L1 protein (Acro Biosystems) as analyte. In general terms: BLI is a label-free optical method that tracks binding on a fibre tip over time.

Assay [4] has as its target T1, human PD-L1 (full length, on cells). Briefly: flow cytometry on PC3 cells, PE anti-human IgG secondary, MFI (PE). On the procedure: as §1, §2
Assay [5] has the same target. Briefly: flow cytometry on MDA-MB-231 cells, PE anti-human IgG secondary, MFI (PE). On the procedure:
as §1, §2

Assay [6] deals with T4, PDLoneECDHisCtag (human, UniProt Q9NZQ7 19-238).
T4 construct: Expressed in HEK-293F cells; theoretical molecular weight 29 kDa; also called recombinant human PD-L1 ECD; human PD-L1 (BLI); not shown: C-terminal His-tag; C-tag
T4 sequence (Q9NZQ7 19-238, form in doubt): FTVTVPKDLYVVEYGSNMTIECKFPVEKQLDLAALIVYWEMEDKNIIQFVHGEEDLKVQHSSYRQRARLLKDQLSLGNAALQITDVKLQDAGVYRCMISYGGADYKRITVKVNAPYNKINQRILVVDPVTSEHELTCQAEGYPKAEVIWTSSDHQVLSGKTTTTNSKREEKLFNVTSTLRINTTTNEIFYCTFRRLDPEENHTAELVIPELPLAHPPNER
Kind of assay: BLI cross-block, second antibody on PDLoneECDHisCtag held by immobilised 321; bold = blocking. As to the method: (§3) Antibody cross-block testing was performed using biolayer interferometry (BLI) on an Octet HTX instrument (ForteBio). Antibodies (20 μg/ml in 10 mM sodium acetate buffer pH 6.0 (ForteBio)) were immobilized on Amine-Reactive 2nd Generation (AR2G) biosensors (ForteBio) according to the instructions of the manufacturer. After a baseline (50 s) in Sample Diluent (ForteBio), biosensors containing immobilized antibodies were loaded for 500 s with PDLoneECDHisCtag (100 nM or 2.7 μg/ml), after which the association response of a second antibody (10 μg/ml) was followed for 500 s. Biosensors were regenerated by using 3 times 5 s alternating exposures to 10 mM glycine pH 2.5 and Sample Diluent. The experiment was repeated with a new set of second antibodies starting from the baseline step. Each biosensor was used 6 times. The experiment was performed at 30° C. using a shaker speed of 1000 rpm. Data was analyzed using Data Analysis Software v9.0.0.12 (ForteBio). The Y-axis was aligned to the association step and Savitzky-Golay filtering was applied. The average buffer response was subtracted from the association response of the second antibody in order to correct for the dissociation of PDLoneECDHisCtag from the immobilized antibody. The corrected association responses were plotted in a matrix format.

Assay [7] deals with T4, PDLoneECDHisCtag. Kind of assay: BLI cross-block, second antibody on PDLoneECDHisCtag held by immobilised 338; bold = blocking. As to the method:
as §3

For assay [8], the target named is T4, PDLoneECDHisCtag. Kind of assay: BLI cross-block, second antibody on PDLoneECDHisCtag held by immobilised 516; plain = non-blocking. On the procedure:
as §3

Assay [9] deals with T4, PDLoneECDHisCtag. Kind of assay: BLI (Octet HTX), average of 3 experiments; antibody on AHC sensor, PDLoneECD-HisCtag as analyte. As to the method: In a first set of experiments, affinities for recombinant-expressed human PD-L1 protein were determined using Bio-layer interferometry (BLI) on an Octet HTX instrument (ForteBio). Anti-Human IgG Fc Capture (AHC) biosensors (ForteBio) were loaded for 900 s with antibodies (1 μg/ml). […] The experiment was carried out while shaking at 1000 rpm at 30° C. Data was analyzed with Data Analysis Software v9.0.0.12 (ForteBio) using the 1:1 model and a global full fit with 1000 s association time and 200 or 1000 s dissociation time. Data traces were corrected by subtraction of a buffer reference, the Y-axis was aligned to the last 10 s of the baseline, and interstep correction as well as Savitzky-Golay filtering was applied. Data traces with a response <0.05 nm were excluded from analysis. As default, the fit using 1000 s dissociation time was used.

Assay [10] concerns the target T5, human PD-L2 (full length, on CHO cells) (human, UniProt Q9BQ51 20-273).
T5 construct: whole, on cells; also called CHO-PD-L2 cells
T5 sequence (looked up): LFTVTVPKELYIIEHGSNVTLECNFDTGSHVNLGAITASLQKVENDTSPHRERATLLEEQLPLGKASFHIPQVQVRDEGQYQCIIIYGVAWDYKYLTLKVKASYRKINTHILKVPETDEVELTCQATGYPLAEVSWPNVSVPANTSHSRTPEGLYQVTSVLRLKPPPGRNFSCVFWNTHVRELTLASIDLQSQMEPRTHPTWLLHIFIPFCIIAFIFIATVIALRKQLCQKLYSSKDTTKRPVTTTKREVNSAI
Briefly: flow cytometry on CHO cells expressing human PD-L2. As to the method:
as §1, §2
A PE-conjugated PD-L2 specific antibody (Mylteni, clone MIH18; cat. no. 130-098-651) was used as positive control.

B1: IgG1-338-FEAR (antibody, V domains shown)
VH: EVQVVESGGGLVQPGGSLRLSCAASGFTFSRFWMSWVRQAPGKGLEWVANIKQDGGEKYYVDSVKGRFTISRDNAKNSLYLQMNSLRGEDTAVYYCARDDNWNGHFDYWGQGTLVTVSS
VL: DIQMTQSPSTLSASVGDRVTITCRASQSISSWLAWYQQKPGKAPNLLIYKASSLESGVPSRFSGSGSGTEFTLTISSLQPDDFATYYCQQYYGSYITFGQGTRLEIKR
On to B1, for which the “EC50 (read off the curve)” value in assay [1] was ~0.1 µg/mL; in assay [2], ~0.01 µg/mL; in assay [4] it was ~0.03 µg/mL; in assay [5], ~0.06 µg/mL. In addition, the values for the Kd (in assay [3]; with PDLoneECDHisCtag [9]) were 0.73 nM and 0.31 nM, respectively. Further, the dissociation rate constant (koff) in assay [3] stood at 0.00028 s⁻¹; with PDLoneECDHisCtag [9] it was 0.00025 s⁻¹. Moreover, the on-rate (kon) is 390000 M⁻¹ s⁻¹ in assay [3] and 800000 M⁻¹ s⁻¹ in the assay with PDLoneECDHisCtag [9]. Further, the results for the “association response of the second antibody” value (shortened to “association response”) in the assay with PDLoneECDHisCtag [6], with PDLoneECDHisCtag [7] and with PDLoneECDHisCtag [8] were 0 nm, 0 nm and 1.1 nm, respectively. Further, the binding result in [10] is “no binding”.

B2: IgG1-547-FEAR (antibody, V domains shown)
VH: EVQLLEPGGGLVQPGGSLRLSCEASGSTFSTYAMSWVRQAPGKGLEWVSGFSGSGGFTFYADSVRGRFTISRDSSKNTLFLQMSSLRAEDTAVYYCAIPARGYNYGSFQHWGQGTLVTVSS
VL: SYVLTQPPSVSVAPGQTARITCGGNNIGSKSVHWYQQKPGQAPVLVVYDDNDRPSGLPERFSGSNSGNTATLTISRVEAGDEADYYCQVWDSSSDHVVFGGGTKLTVLG
For B2, the “EC50 (read off the curve)” value in [1] was ~0.2 µg/mL; in assay [2], ~0.02 µg/mL; in assay [4], ~0.04 µg/mL; in [5], ~0.06 µg/mL. The Kd amounted to 0.27 nM in assay [3] and 0.12 nM with PDLoneECDHisCtag [9]. The values for the koff (in [3]; with PDLoneECDHisCtag [9]) were 0.00012 s⁻¹ and 0.00011 s⁻¹, respectively. Also, the on-rate (kon) in assay [3] was determined as 440000 M⁻¹ s⁻¹; in the assay with PDLoneECDHisCtag [9], 970000 M⁻¹ s⁻¹. In addition, the “association response” value with PDLoneECDHisCtag [6] stood at 0 nm; with PDLoneECDHisCtag [7], 0 nm; with PDLoneECDHisCtag [8] it was 0.8 nm. The binding result in [10] is recorded as “no binding”.

B3: IgG1-511-LC33S-FEAR (antibody, V domains shown)
VH: QVQLVQSGSELKKPGASVMVSCKASGYTFTSYVMNWVRQAPGQGLEWMGWINSYTGNPTSAQGFTGRFVFSFDTSVNTAYLQISSLKAEDTAVYYCARGYCTSTSCYLDYWGQGTLVTVSS
VL: SYELTQPPSVSVSPGHTARITCSGDALPKKYASWFQQKSGQAPVLVIYEDSKRPSGIPERFSGSTSGTMATLTISGAQVEDETDYYCYSADTSGTHRVFGGGTKLTVLG
B3: the concentration giving a half-maximal response (EC50 (read off the curve)) was ~0.2 µg/mL in assay [1], ~0.02 µg/mL in assay [2], ~0.01 µg/mL in assay [4] and ~0.04 µg/mL in [5]. For the same molecule, the values for the dissociation constant (Kd) (in assay [3]; with PDLoneECDHisCtag [9]) were 12 nM and 5.1 nM, respectively. In addition, the results for the off-rate (koff) (in assay [3]; with PDLoneECDHisCtag [9]) were 0.0052 s⁻¹ and 0.0048 s⁻¹, respectively. Also, the figures for the on-rate constant (kon) (in assay [3]; with PDLoneECDHisCtag [9]) were 450000 M⁻¹ s⁻¹ and 960000 M⁻¹ s⁻¹, respectively. Also, the “association response” value is 0 nm with PDLoneECDHisCtag [6], 0 nm with PDLoneECDHisCtag [7] and 1.1 nm with PDLoneECDHisCtag [8]. In addition, the binding result in assay [10] is recorded as “no binding”.
